Laboratory results published in patent publication US20130004432A1 (INSTITUT NATIONAL DE LA SANTE ET DE LA RECHERCHE MEDICALE, published 2013).

Target: T1, human B7H6 (human, UniProt Q68D85 25-454)
T1 construct: in the immunoblot and immunoprecipitation experiments it stood in cell lysates; residues 1-24 are not expressly called a signal peptide; also called P815.B7H6; P815.B7-H6
T1 sequence: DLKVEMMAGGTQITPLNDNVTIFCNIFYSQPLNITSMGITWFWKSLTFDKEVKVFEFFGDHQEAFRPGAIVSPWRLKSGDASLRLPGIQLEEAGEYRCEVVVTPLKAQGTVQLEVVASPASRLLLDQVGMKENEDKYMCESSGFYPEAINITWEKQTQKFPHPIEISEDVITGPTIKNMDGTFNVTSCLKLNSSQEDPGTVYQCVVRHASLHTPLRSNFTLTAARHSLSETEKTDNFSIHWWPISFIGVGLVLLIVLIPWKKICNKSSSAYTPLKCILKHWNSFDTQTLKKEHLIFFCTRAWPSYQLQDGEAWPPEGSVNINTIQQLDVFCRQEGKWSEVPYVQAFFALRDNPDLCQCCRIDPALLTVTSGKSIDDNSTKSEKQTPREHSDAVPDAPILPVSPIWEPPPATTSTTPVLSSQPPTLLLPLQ
Experiment: FACS on P815.B7-H6 cells

- binding result: binds
B1: NKp30Fc, soluble form of human NKp30 consisting of the extracellular domain of human NKp30 with a C-terminal Fc fusion (Fc fusion, UniProt O14931 19-135, looked up)
chain: LWVSQPPEIRTLEGSSAFLPCSFNASQGRLAIGSVTWFRDEVVPGKEVRNGTPEFRGRLAPLASSRFLHDHQAELHIRDVRGHDASIYVCRVEVLGLGVGTGNGTRLVVEKEHPQLG
notes: extracellular domain; not shown: C-terminal Fc
